The record followed here is patent US20260092096A1 (35PHARMA, published 2026).

Holding throughout (assay): cell-based or functional assay
Assay [1] has as its target T1, BMP-9 (UniProt Q9UK05 320-429).
T1 sequence (looked up): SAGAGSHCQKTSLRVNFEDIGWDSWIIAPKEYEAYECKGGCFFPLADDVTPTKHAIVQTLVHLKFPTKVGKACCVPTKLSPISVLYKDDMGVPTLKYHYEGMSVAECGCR

Assay [2] concerns the target T2, BMP-10 (UniProt O95393 317-424).
T2 sequence (looked up): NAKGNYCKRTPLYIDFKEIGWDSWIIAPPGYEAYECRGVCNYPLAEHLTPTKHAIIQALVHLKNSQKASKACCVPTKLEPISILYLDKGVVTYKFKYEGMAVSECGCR

The target in assay [3] is T3, GDF-8 (UniProt O14793 267-375).
T3 sequence (looked up): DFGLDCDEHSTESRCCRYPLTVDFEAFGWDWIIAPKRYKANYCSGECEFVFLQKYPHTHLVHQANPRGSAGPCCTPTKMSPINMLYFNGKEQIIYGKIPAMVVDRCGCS

Assay [4] concerns the target T4, GDF-11 (UniProt O95390 299-407).
T4 sequence (looked up): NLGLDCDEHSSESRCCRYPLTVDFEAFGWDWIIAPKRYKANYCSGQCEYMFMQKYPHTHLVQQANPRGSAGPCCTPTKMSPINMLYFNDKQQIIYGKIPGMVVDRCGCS

In assay [5] the target is T5, activin A (human, UniProt P08476 311-426).
T5 sequence (looked up): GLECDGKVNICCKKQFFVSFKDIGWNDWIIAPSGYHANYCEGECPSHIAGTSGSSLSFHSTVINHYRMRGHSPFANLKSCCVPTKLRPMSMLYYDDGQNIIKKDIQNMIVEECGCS

The target of assay [6] is T6, activin B (UniProt P09529 293-407).
T6 sequence (looked up): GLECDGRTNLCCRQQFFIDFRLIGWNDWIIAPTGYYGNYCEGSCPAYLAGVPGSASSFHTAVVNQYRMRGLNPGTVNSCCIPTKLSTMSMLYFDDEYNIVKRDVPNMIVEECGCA

For the molecule “P739 (hActRIIB G27E, 14 aa linker, IgG1-DL) (Fc fusion)”, the IC50, BMP-reporter HepG2 cell-based neutralization assay in assay [1] is 1.1 nM; in assay [2], 4 nM. Also, the fold increase in neutralization potency relative to P75 in assay [1] stood at 2 fold. Besides, the IC50, TGFβ-reporter HEK293 cell-based neutralization assay in assay [3] turned out to be 2 nM; in assay [4] it was 2.1 nM; in assay [5], 3.5 nM; in assay [6] it was 6 nM.

For the molecule “P753 (hActRIIB T69H, 14 aa linker, IgG1-DL) (Fc fusion)”, the IC50, BMP-reporter HepG2 cell-based neutralization assay in assay [1] was 2.1 nM; in assay [2], 2.9 nM. Besides, the IC50, TGFβ-reporter HEK293 cell-based neutralization assay in assay [3] was 1.4 nM; in assay [4], 1.5 nM; in assay [5], 1.6 nM; in assay [6] it was 2.4 nM. The fold increase in neutralization potency relative to P75 in assay [5] worked out at 1.5 fold.

Turning to “P754 (hActRIIB T69Q, 14 aa linker, IgG1-DL) (Fc fusion)”, the IC50, BMP-reporter HepG2 cell-based neutralization assay is 3.5 nM in assay [1] and 2.5 nM in assay [2]. The IC50, TGFβ-reporter HEK293 cell-based neutralization assay in assay [4] is 1.6 nM; in assay [5] it was 1.5 nM; in assay [6], 2.1 nM.

B1: P1372 (hActRIIB L33W, 14 aa linker, IgG1 YTE-DL) (Fc fusion)
chain: ETRECIYYNANWELERTNQSGLERCEGEQDKRWHCYASWRNSSGTIELVKKGCWLDDFNCYDRQECVATEENPQVYFCCCEGNFCNERFTHLPEAGGPEVTYEPPPTGGGGSGGGGSGGGGTHTCPPCPAPELLGGPSVFLFPPKPKDTLYITREPEVTCVVVDVSHEDPEVKFNWYVDGVEVHNAKTKPREEQYNSTYRVVSVLTVLHQDWLNGKEYKCKVSNKALPAPIEKTISKAKGQPREPQVYTLPPSRDELTKNQVSLTCLVKGFYPSDIAVEWESNGQPENNYKTTPPVLDSDGSFFLYSKLTVDKSRWQQGNVFSCSVMHEALHNHYTQKSLSLSPG
Turning to B1, the “IC50, BMP-reporter HepG2 cell-based neutralization assay” value is more than 1000 nM in assay [1] and more than 100 nM in assay [2]. The “IC50, TGFβ-reporter HEK293 cell-based neutralization assay” value in assay [3] came out at 0.18 nM; in assay [4], 0.53 nM; in assay [5] it was 0.56 nM; in assay [6], 2 nM.

B2: P1375 (hActRIIB L33W, 19 aa linker, IgG1 YTE-DL) (Fc fusion)
chain: ETRECIYYNANWELERTNQSGLERCEGEQDKRWHCYASWRNSSGTIELVKKGCWLDDFNCYDRQECVATEENPQVYFCCCEGNFCNERFTHLPEAGGPEVTYEPPPTGGGGSGGGGSGGGGSGGGGTHTCPPCPAPELLGGPSVFLFPPKPKDTLYITREPEVTCVVVDVSHEDPEVKFNWYVDGVEVHNAKTKPREEQYNSTYRVVSVLTVLHQDWLNGKEYKCKVSNKALPAPIEKTISKAKGQPREPQVYTLPPSRDELTKNQVSLTCLVKGFYPSDIAVEWESNGQPENNYKTTPPVLDSDGSFFLYSKLTVDKSRWQQGNVFSCSVMHEALHNHYTQKSLSLSPG
On to B2, for which the “IC50, BMP-reporter HepG2 cell-based neutralization assay” value in assay [1] is more than 1000 nM; in assay [2], more than 100 nM. Also, the “IC50, TGFβ-reporter HEK293 cell-based neutralization assay” value was determined as 0.33 nM in assay [3], 0.39 nM in assay [4], 0.53 nM in assay [5] and 2 nM in assay [6].
